Measurements published in PMC6131546, “Interaction of TBC1D9B with Mammalian ATG8 Homologues Regulates Autophagic Flux” (Scientific Reports, 2018).

Biological target: T1, FLAG-TBC1D9Bα from a stable HEK293 cell line (human, UniProt Q66K14-1 1-1250)
T1 construct: human TBC1D9B, alpha splice form, in pcDNA3.1-FLAG; also called FLAG-tagged recombinant TBC1D9B; source: purified (anti-FLAG M2 beads, eluted with glycine HCl) for the pull-down; in lysate for the co-IP
Assay: pull-down; GST fusion on glutathione-sepharose beads, incubated with recombinant FLAG-TBC1D9B or His-LC3B at 4 °C for 1 hour; 20 mM Tris pH 7.4, 0.1 mM EDTA, 100 mM NaCl; SDS-PAGE with Coomassie Brilliant Blue
Details: both partners purified

T1 sequence (Q66K14 whole entry, canonical isoform): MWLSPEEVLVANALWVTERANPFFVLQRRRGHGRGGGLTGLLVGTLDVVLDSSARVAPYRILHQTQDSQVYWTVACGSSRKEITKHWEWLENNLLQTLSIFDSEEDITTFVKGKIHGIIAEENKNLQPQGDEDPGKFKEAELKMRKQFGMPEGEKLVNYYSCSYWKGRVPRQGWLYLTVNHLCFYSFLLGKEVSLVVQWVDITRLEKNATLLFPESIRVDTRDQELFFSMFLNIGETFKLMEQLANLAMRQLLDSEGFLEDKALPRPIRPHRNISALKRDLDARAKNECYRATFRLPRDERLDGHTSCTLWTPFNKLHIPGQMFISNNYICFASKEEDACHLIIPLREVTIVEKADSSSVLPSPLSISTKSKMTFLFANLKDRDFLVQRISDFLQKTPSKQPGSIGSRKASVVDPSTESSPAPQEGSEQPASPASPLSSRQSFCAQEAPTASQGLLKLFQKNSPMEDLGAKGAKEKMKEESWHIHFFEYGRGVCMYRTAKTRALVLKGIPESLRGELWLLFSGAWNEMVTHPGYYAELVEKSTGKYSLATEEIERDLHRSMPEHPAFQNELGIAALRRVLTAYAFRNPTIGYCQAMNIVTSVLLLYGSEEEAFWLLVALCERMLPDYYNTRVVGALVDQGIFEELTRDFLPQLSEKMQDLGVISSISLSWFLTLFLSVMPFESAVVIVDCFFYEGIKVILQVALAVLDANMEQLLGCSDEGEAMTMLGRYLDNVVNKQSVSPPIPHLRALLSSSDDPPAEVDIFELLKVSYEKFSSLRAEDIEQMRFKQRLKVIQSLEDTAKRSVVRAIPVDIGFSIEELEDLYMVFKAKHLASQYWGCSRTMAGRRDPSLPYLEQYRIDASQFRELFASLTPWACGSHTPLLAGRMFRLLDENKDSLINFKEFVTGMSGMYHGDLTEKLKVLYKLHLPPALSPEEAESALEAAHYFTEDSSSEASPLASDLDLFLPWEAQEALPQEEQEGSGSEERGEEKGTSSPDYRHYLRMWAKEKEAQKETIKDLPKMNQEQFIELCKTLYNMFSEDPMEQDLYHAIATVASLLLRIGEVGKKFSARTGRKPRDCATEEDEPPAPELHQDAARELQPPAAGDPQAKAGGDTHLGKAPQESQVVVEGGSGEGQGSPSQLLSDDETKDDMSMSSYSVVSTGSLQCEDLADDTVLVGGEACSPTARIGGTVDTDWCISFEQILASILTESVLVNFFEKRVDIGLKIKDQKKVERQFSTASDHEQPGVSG

B1: recombinant GST-GABARAP (natural protein, human, UniProt O95166 1-117, looked up)
chain: MKFVYKEEHPFEKRRSEGEKIRKKYPDRVPVIVEKAPKARIGDLDKKKYLVPSDLTVGQFYFLIRKRIHLRAEDALFFFVNNVIPPTSATMGQLYQEHHEEDFFLYIAYSDESVYGL
notes: human GABARAP, cloned into pGEX-6p; also called GST-fused GABARAP; source: E. coli BL21, purified (glutathione-sepharose)
- binding result: binds
